Source: patent publication US20230338424A1 (LENTIGEN TECHNOLOGY, published 2023)

B1: CAR D0131 CD123 MB42-D03 CD8 BBz (other)
chain: QVQLVQSGAEVKKPGASVKVSCKASGYTFTSYGISWVRQAPGQGLEWMGWISAYNGNTNYAQKLQGRVTMTTDTSTSTAYMELRSLRSDDTAVYYCARGAYYDFWSSYSWFDPWGQGTLVTVSSGGGGSGGGGSGGGGSSYVLTQPPSVSVAPGKTARITCGGNSIGSKSVQWYQQKPGQAPVLVIYDDSDRPSGIPERFSGSNSGNTATLTISRVEAGDEADYYCQVWDSSSDVVFGGGTKLTVLAAATTTPAPRPPTPAPTIASQPLSLRPEACRPAAGGAVHTRGLDFACDIYIWAPLAGTCGVLLLSLVITLYCKRGRKKLLYIFKQPFMRPVQTTQEEDGCSCRFPEEEEGGCELRVKFSRSADAPAYQQGQNQLYNELNLGRREEYDVLDKRRGRDPEMGGKPRRKNPQEGLYNELQKDKMAEAYSEIGMKGERRRGKGHDGLYQGLSTATKDTYDALHMQALPPR
notes: Chimeric antigen receptor on transduced human primary T cells; also called EF-1a-CD123 MB42-D03 CD8 BBz; CAR123 D0131
B2: CAR D0132 CD123 MB42-E02 CD8 BBz (other)
chain: QVQLVQSGAEVKKPGASVKVSCKASGYTFTSYGISWVRQAPGQGLEWMGWISAYNGNTNYAQKLQGRVTMTTDTSTSTAYMELRSLRSDDTAVYYCARGAYYDFWSGYSWFDPWGQGTLVTVSSGGGGSGGGGSGGGGSQSVLTQPPSVSVAPGQTARIPCGGNNIGSKGVHWYQQKSGQAPVMVVYDDSDRPSGIPERFSGSNSGNTATLTISRVEAGDEADYYCQVWDSSGDLVLFGGGTKLTVLAAATTTPAPRPPTPAPTIASQPLSLRPEACRPAAGGAVHTRGLDFACDIYIWAPLAGTCGVLLLSLVITLYCKRGRKKLLYIFKQPFMRPVQTTQEEDGCSCRFPEEEEGGCELRVKFSRSADAPAYQQGQNQLYNELNLGRREEYDVLDKRRGRDPEMGGKPRRKNPQEGLYNELQKDKMAEAYSEIGMKGERRRGKGHDGLYQGLSTATKDTYDALHMQALPPR
notes: Chimeric antigen receptor on transduced human primary T cells; also called EF-1a-CD123 MB42-E02 CD8 BBz
B3: CAR D0133 CD123 MB42-E12 CD8 BBz (other)
chain: QVQLVQSGAEVKKPGASVKVSCKASGYTFTSYGISWVRQAPGQGLEWMGWISAYNGNTNYAQKLQGRVTMTTDTSTSTAYMELRSLRSDDTAVYYCARGAYYDFWSSYSWFDPWGQGTLVTVSSGGGGSGGGGSGGGGSSYVLTQPPSVSVAPGKTARITCGGNNIGSKSVHWYQQKPGQAPVLVVYDDSDRPSGIPERFSGSNSGNTATLTISRVEAGDEADYYCQVWDSSSDHVVFGGGTKLTVLAAATTTPAPRPPTPAPTIASQPLSLRPEACRPAAGGAVHTRGLDFACDIYIWAPLAGTCGVLLLSLVITLYCKRGRKKLLYIFKQPFMRPVQTTQEEDGCSCRFPEEEEGGCELRVKFSRSADAPAYQQGQNQLYNELNLGRREEYDVLDKRRGRDPEMGGKPRRKNPQEGLYNELQKDKMAEAYSEIGMKGERRRGKGHDGLYQGLSTATKDTYDALHMQALPPR
notes: Chimeric antigen receptor on transduced human primary T cells; also called EF-1a-CD123 MB42-E12 CD8 BBz
B4: CAR D0134 CD123 MB44-H01 CD8 BBz (other)
chain: QVQLVQSGAEVKKPGSSVKVSCKASGGTFSSYAISWVRQAPGQGLEWMGGIIPIFGTANYAQRFQGRVTITADESTSTAYMELSSLRSEDTAVYYCARGLGTSYYYYYMDVWGKGTTVTVSSGGGGSGGGGSGGGGSQSVLTQPPSASGSPGQSVTISCTGTSSDVGGYNYVSWYQQHPGKAPKLMIYEVSNRPSGVSNRFSGSKSGNTASLTISGLQAEDEADYYCSSYTSSSTPVVFGGGTKLTVLAAATTTPAPRPPTPAPTIASQPLSLRPEACRPAAGGAVHTRGLDFACDIYIWAPLAGTCGVLLLSLVITLYCKRGRKKLLYIFKQPFMRPVQTTQEEDGCSCRFPEEEEGGCELRVKFSRSADAPAYQQGQNQLYNELNLGRREEYDVLDKRRGRDPEMGGKPRRKNPQEGLYNELQKDKMAEAYSEIGMKGERRRGKGHDGLYQGLSTATKDTYDALHMQALPPR
notes: Chimeric antigen receptor on transduced human primary T cells; also called EF-1a-CD123 MB44 -H01CD8 BBz
B5: CAR D0130 CD123 MB40-H08 CD8 BBz (other)
chain: QVQLVQSGAEVKKPGSSVKVSCKASGGTFSSYAISWVRQAPGQGLEWMGGIIPIFGTANYAQKFQGRVTITADESTSTAYMELSSLRSEDTAVYYCARNEWYSYYYYYMGVWGKGTTVTVSSGGGGSGGGGSGGGGSQSALTQPASVSGSPGQSITISCTGTSSDVGGYNYVSWYQQHPGKAPKLMIYEVSNRPSGVSNRFSGSKSGNTASLTISGLQAEDEADYYCSSYTSSSTLVVFGGGTKLTVLAAATTTPAPRPPTPAPTIASQPLSLRPEACRPAAGGAVHTRGLDFACDIYIWAPLAGTCGVLLLSLVITLYCKRGRKKLLYIFKQPFMRPVQTTQEEDGCSCRFPEEEEGGCELRVKFSRSADAPAYQQGQNQLYNELNLGRREEYDVLDKRRGRDPEMGGKPRRKNPQEGLYNELQKDKMAEAYSEIGMKGERRRGKGHDGLYQGLSTATKDTYDALHMQALPPR
notes: Chimeric antigen receptor on transduced human primary T cells; also called EF-1a-CD123 MB40-H08 CD8 BBz
B6: CAR LTG2078 CD123 M12306 CD8 BBz (other)
chain: EVQLVQSGSELKKPGASVKVSCKASGGTFSSYAISWVRQAPGQGLEWMGGIIPIFGTANYAQKFQGRVTITADESTSTAYMELSSLRSEDTAVYYCASTARRGWDTAGPLDYWGQGTLVTVSSGGGGSGGGGSGGGGSDIQMTQSPSSLSASVGDRVTIACRASQTISRYLNWYQQKPGKAPKLLIYAASSLQSGVSSRFSGSGSGTEFTLTISSLQPEDFATYFCQQTYSPPITFGQGTRLEIKAAATTTPAPRPPTPAPTIASQPLSLRPEACRPAAGGAVHTRGLDFACDIYIWAPLAGTCGVLLLSLVITLYCKRGRKKLLYIFKQPFMRPVQTTQEEDGCSCRFPEEEEGGCELRVKFSRSADAPAYQQGQNQLYNELNLGRREEYDVLDKRRGRDPEMGGKPRRKNPQEGLYNELQKDKMAEAYSEIGMKGERRRGKGHDGLYQGLSTATKDTYDALHMQALPPR
notes: Control chimeric antigen receptor on transduced human primary T cells; Leader (residues 1-22) left out; also called EF-1a CD123 CD8 BBz

The binders below were run against T1, recombinant human CD123-Fc (human, UniProt P26951 19-305, limits assumed) (assay: flow cytometry, CAR T cells stained with recombinant IL3R-alpha Fc-tagged, anti-Fc AF647).
T1 construct: Treated as one molecule; also called CD123-Fc peptide (Novoprotein); recombinant IL3R-alpha Fc-tagged; not shown: Fc tag
T1 sequence (looked up): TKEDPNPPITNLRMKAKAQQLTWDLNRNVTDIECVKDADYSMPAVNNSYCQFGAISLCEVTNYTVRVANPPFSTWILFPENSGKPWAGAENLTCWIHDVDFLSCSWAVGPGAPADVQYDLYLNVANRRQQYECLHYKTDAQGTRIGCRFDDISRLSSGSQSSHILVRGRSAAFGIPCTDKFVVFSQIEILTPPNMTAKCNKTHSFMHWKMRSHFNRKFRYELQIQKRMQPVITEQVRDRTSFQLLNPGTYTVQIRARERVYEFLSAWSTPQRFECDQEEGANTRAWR
Method: Half million CAR T cells were washed two times in cold AutoMACS buffer supplemented with 0.5% bovine serum albumin (Miltenyi Biotec, Bergisch Gladbach, Germany) and stained with 2.5 ug/ml CD123-Fc peptide (Novoprotein, Summit, NJ), followed by anti Fc-AF647 conjugate (Jackson ImmunoResearch, West Grove, PA). The 7-Aminoactinomycin D staining (7-AAD, BD Biosciences, San Jose, CA) was added to exclude dead cells. Non-transduced cells (UTD) were used as a negative control. Cells were washed twice with AutoMACS buffer supplemented with 0.5% bovine serum albumin, resuspended in 200 ul staining buffer and acquired by flow cytometry. Flow cytometric analysis was performed on a MACSQuant® 10 Analyzer (Miltenyi Biotec), and data plots were generated using FlowJo software (Ashland, OR).
Lentiviral vectors encoding the CD123 CAR constructs were used for CAR transduction into human primary T cells at multiplicity of infection (MOI) of 40. CAR surface expression of transduced T cells by flow cytometry using recombinant IL3R-alpha Fc-tagged, followed by staining with anti-Fc Alexa Flour 647.
B1: binds. B2: binds. B3: binds. B4: binds. B5: binds. B6: binds.
